Like-named read-outs stand apart in the source and are kept apart here.
T1: full length C57BL/6 mouse SIRPα stably expressed on CHOK1 cells (mouse (C57BL/6), UniProt P97797 32-513)
T1 construct: whole, on cells; also called CHOK1-C57BL/6 mouse SIRPα-2.22 cells
T1 sequence (looked up): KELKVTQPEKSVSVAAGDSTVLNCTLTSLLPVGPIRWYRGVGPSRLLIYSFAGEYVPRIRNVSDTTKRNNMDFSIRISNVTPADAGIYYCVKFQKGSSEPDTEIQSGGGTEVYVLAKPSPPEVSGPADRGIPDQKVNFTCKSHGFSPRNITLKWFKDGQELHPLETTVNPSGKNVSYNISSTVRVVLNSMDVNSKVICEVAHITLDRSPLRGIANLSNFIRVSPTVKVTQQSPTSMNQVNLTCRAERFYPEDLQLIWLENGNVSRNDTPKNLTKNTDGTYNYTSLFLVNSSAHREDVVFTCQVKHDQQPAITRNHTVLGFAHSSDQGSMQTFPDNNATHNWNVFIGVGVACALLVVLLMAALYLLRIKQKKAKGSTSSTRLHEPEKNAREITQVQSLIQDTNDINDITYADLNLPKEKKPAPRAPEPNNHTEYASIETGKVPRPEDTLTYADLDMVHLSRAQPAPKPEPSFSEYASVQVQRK


Key:
[1] = target: T1, full length C57BL/6 mouse SIRPα stably …; test: FACS on CHOK1 cells
Procedure: (§1) Species cross reactivity of the purified hybridoma antibodies against human, cyno and mouse SIRPα was determined by FACS assay using CHOK1-human SIRPα v1-1B4 cells, CHOK1-cyno SIRPα-2A2 cells, and CHOK1-C57BL/6 mouse SIRPα-2.22 cells, which stably expressing SIRPα protein. Briefly the antibodies were incubated with 2×10⁵ target cells at 4° C. for 1 hour. After washing, fluorescence labeled anti-mouse or anti-human IgG 2nd antibody (Life Technologies) was added and incubated at 4° C. for 1 hour. Geometric median fluorescence intensity was detected and EC₅₀ was calculated. In particular, it is noted, in contrast to the other antibodies tested in the same experiment, 060 cannot bind with cyno SIRPα and 035 has cross reactivity against C57BL/6 mouse SIRPα.
(§2) The purified chimeric antibodies were applied for binding specificity analysis and species cross reactivity analysis (refer to methods described in Example 3.3 and 3.4). FIGS. 1A to 1D show binding specificity of anti-SIRPα chimeric antibodies against recombinant proteins of human SIRPα v1 ECD (A), human SIRPα v2 ECD (B), human SIRPβ ECD (C) and human SIRPγ ECD (D) as measured by ELISA analysis.

[2] = target: T2, full length human SIRPα v1 stably expressed on CHOK1 cells (human, UniProt P78324 31-504); test: FACS on CHOK1 cells
T2 construct: whole, on cells; also called CHOK1-human SIRPα v1-1B4 cells; CHOK1-human SIRPα v1
Procedure: as §1, §2

[3] = target: T3, Fc tagged human SIRPα v1 ECD recombinant protein (human, UniProt P78324 31-370); test: ELISA
T3 construct: range 1-370; cloned range M1-R370 includes the signal peptide; also called hSIRPα V1; not shown: human IgG Fc region (hFc) of the pCPC vector
Procedure: (§3) Binding specificity of the purified hybridoma antibodies against SIRP family members was detected by ELISA assay using recombinant proteins of Fc tagged human SIRPα v1 ECD, human SIRPα v2 ECD, human SIRPβ ECD and human SIRPγ ECD. Briefly the antibodies were incubated with ELISA microplate coated antigens at 37° C. for 1 hour. After washing, horseradish peroxidase (HRP) labeled anti-mouse or anti-human IgG 2nd Ab (Sigma) was added and incubated at 37° C. for 1 hour. Then, 100 μl/well of TMB solution (Biotechnology) was added. After incubation for 15 minutes at room temperature, the reaction was stopped by the addition of 50 μl of 1N HCl. OD 450 nm was read and EC₅₀ was calculated. Other than 060 and HEFLB, all of the antibodies as tested can bind with both human SIRPα v1 and SIRPα v2. 060 and HEFLB can bind with human SIRPα v1 but not v2. Other than 055, all of the antibodies as tested can bind with human SIRPβ. In comparison with other known anti-SIRPα antibodies, only 022, 035 and 050 can bind with human SIRPγ weakly.
as §2

[4] = target: T3, Fc tagged human SIRPα v1 ECD …; test: ELISA; remark: listed apart in the source
Procedure: as §3, §2

[5] = target: T2, full length human SIRPα v1 stably …; test: FACS on CHOK1 cells; remark: listed apart in the source
[6] = target: T2, full length human SIRPα v1 stably …; test: FACS on CHOK1 cells; remark: listed apart in the source
Procedure: as §1, with “SIRPα. […]” for “SIRPα.”

[7] = target: T4, biotin labeled soluble human SIRPα v1 ECD recombinant protein (human, UniProt P78324 31-373, biotin labeled); test: competitive ELISA, biotin-SIRPα v1 ECD to coated CD47 ECD
T4 construct: extracellular domain
Procedure: Competitive ELISA assay was used to determine whether the purified hybridoma antibodies can block CD47 and SIRPα interaction or CD47 and SIRPγ interaction. Briefly, for CD47 and SIRPα interaction blocking activity detection, antibody and biotin labeled soluble human SIRPα v1 ECD recombinant protein were co-incubated with ELISA microplate coated human CD47 ECD recombinant protein.
For CD47 and SIRPγ interaction blocking activity detection, antibody and biotin labeled soluble human CD47 ECD recombinant protein were co-incubated with ELISA microplate coated human SIRPγ ECD recombinant protein. After washing, horseradish peroxidase labeled streptavidin (HRP-SA, Sigma) was added and incubated at 37° C. for 1 hour. Then, 100 μl/well of TMB solution (Biotechnology) was added. After incubation for 15 minutes at room temperature, the reaction was stopped by the addition of 50 μl of 1N HCl. OD 450 nm was read. Blocking ratio and IC₅₀ was calculated. In comparison with other known anti-SIRPα antibodies, 022, 050, 055, and 074 cannot block CD47 and SIRPα interaction. In particular, all of the antibodies of the invention cannot block CD47 and SIRPγ interaction.

Binder	binding result [1]	EC50 [2] [nM]	EC50 [3] [nM]	EC50 [4] [nM]	EC50 [5] [nM]	EC50 [6] [nM]	IC50 [7] [nM]
reference antibody KWAR23 (antibody, V domains shown) VH: EVQLQQSGAELVKPGASVKLSCTASGFNIKDYYIHWVQQRTEQGLEWIGRIDPEDGETKYAPKFQDKATITADTSSNTAYLHLSSLTSEDTAVYYCARWGAYWGQGTLVTVSS VL: QIVLTQSPAIMSASPGEKVTLTCSASSSVSSSYLYWYQQKPGSSPKLWIYSTSNLASGVPARFSGSGSGTSYSLTISSMEAEDAASYFCHQWSSYPRTFGAGTKLELK	no binding (tested: 10 nM)	2.8	0.1	0.1	2.8	2.8	0.6
reference antibody HEFLB (antibody, V domains shown) VH: EVQLVQSGAEVKKPGESLRISCKASGYSFTSYWVHWVRQMPGKGLEWMGNIDPSDSDTHYSPSFQGHVTLSVDKSISTAYLQLSSLKASDTAMYYCVRGGTGTLAYFAYWGQGTLVTVSS VL: DVVMTQSPLSLPVTLGQPASISCRSSQSLVHSYGNTYLYWFQQRPGQSPRLLIYRVSNRFSGVPDRFSGSGSGTDFTLKISRVEAEDVGVYYCFQGTHVPYTFGGGTKVEIK	no binding (tested: 10 nM)	11.2	0.11	0.11	11.2	11.2	0.5
Antibody 060 (hybridoma antibody) (antibody, V domains shown, mouse hybridoma antibody) VH: QVQLKESGPGLVAPSESLSITCTVSGFSLTNYDISWIRQSPGKGLEWLGVIWTGGDTNFNSAFMSRLSISKDKSKSQVFLKLNSLQTDDTAIYYCVRVQYFGGSYGPMDYWGQGISVTVSS VL: DIQMTQASSYLSVSLGGRVTITCEASDHINDWLAWYQQTPGNAPRLLISGATSLETGVPSRFSGSGSGKDYTLSITSLQTEDIATYYCQQYWNTPLTFGAGTRLELK					0.9		> 1000
Antibody 035 (hybridoma antibody) (antibody, V domains shown, mouse hybridoma antibody) VH: QIQLVQSGPELRKPGETVKISCKASGYSFTNYAMNWVKQAPGKVLKWMGFINTYTGEPTYADDFKGRFAFSLETSASTAYLQINNLKNEDTATYFCTRTRGYYDFDGGAFDYWGQGTSLTVSS VL: DIVMTQSQKFMSTSIGDRVSVTCKASQNVGTHLAWYQQKPGQSPKALIFSASYRYIGVPDRFTGSGSGTDFTLTITNVQSEDLAEYFCQQYNTYPLTFGAGTKLELK					0.7		4.9
Antibody 001 (hybridoma antibody) (antibody, V domains shown, mouse hybridoma antibody) VH: EVKLEESGGGLVQPGGSMKLSCVASGFTFRNYWMNWVRQSPERGLEWIAEISLKSNTYATHYAESVKGRFAISRDGSKSSFYLQMNDLRAEDTGIYYCTTFTKVVADWHLDVWGAGTTVTVSS VL: DVLMTQTPLSLPVSLGDQASISCRSSQNIVHSNGNTYLEWYLQKPGQSPKLLIYKVSNRFSGVPDRFSGSGSGTDFTLRISRVEAEDLGVYYCFQGSHVPFTFGSGTKLEIK					1		1.4
Antibody 032 (hybridoma antibody) (antibody, V domains shown, mouse hybridoma antibody) VH: EVRLEESGGGLVQPGGSMKLSCVVSGFTFRNYWMNWVRQSPERGLEWIAEITLKSNTYATHYAESVKGRFAISRDDSKSSFYLQMNDLRPEDTGIYYCTTFTKVVADWHLDVWGAGTTVTVSS VL: DVLMTQTPLSLPVNLGDQASISCRSSQNIVHSNGNTYLEWYLQKPGQSPKLLIYKVSNRFSGVPDRFSGSGSGTDFTLRISRVEAEDLGVYYCFQGSHVPFTFGSGTKLEIK					0.4		0.2
Antibody 002 (hybridoma antibody) (antibody, V domains shown, mouse hybridoma antibody) VH: EVKLEESGGGLVQPGGSMILSCVASGFTFRNYWMNWVRQSPERGLEWIAEITLKSNTYATHYAESVKGRFAISRDDSKSSFYLQMNDLRPEDTGIYYCTTFTKVVADWHLDVWGAGTTVTVSS VL: DVLMTQTPLSLPVSLGDQASISCRSSQNIVHSNGNTYLEWYLQKPGQSPKLLIYKISNRFSGVPDRFSGSGSGTDFTLRISRVEAEDLGVYYCFQGSHVPFTFGSGTKLEIQ					1		1.3
reference antibody 29-AM4-5 (antibody, V domains shown) VH: EVQLVESGGGLVQPGGSLRLSCAASGFNISYYFIHWVRQAPGKGLEWVASVYSSFGYTYYADSVKGRFTISADTSKNTAYLQMNSLRAEDTAVYYCARFTFPGLFDGFFGAYLGSLDYWGQGTLVTVSS VL: DIQMTQSPSSLSASVGDRVTITCRASQSVSSAVAWYQQKPGKAPKLLIYSASSLYSGVPSRFSGSRSGTDFTLTISSLQPEDFATYYCQQAVNWVGALVTFGQGTKVEIK	no binding (tested: 10 nM)	13.6	0.11	0.11	13.6	13.6	1.4
